According to article PMC8580882:

Biological target: Cyclosorus parasiticus chalcone synthase 1 (CpCHS1) (Cyclosorus parasiticus)
Test: crystal structure; sitting-drop vapor diffusion at 20°C; 0.2 M sodium chloride, 0.1 M Tris-HCl pH 8.0, 20% w/v PEG 4000; apo form at 1.9 Å, complexes with naringenin and with naringenin + CoA at 2.4 Å; molecular replacement with 6DXB

stoichiometry N: 2
Substance: Cyclosorus parasiticus chalcone synthase 1 (CpCHS1) (enzyme)
